From publication PMC8307404, “Crystal Structure-Guided Design of Bisubstrate Inhibitors and Photoluminescent Probes for Protein Kinases of the PIM Family” (Molecules, 2021)

Test system: U2OS cells
Assay: Cellular uptake of fluorescent probes, live-cell microscopy
Assay type: cell-based, human
Details: 1–5 μM, 10–60 min
Experimental: For studies of the general internalization properties of ARCs, the cells were seeded at the density of 12,000–25,000 cells per well onto an Ibidi μ-plate (96-well; Ibidi GmbH, Planegg, Germany). After 24 h incubation in growth medium, the cells were treated for 10 min, 30 min, or 1 h with dilutions of compounds 6, 7, 8, or ARC-2090 (5 μM, 2.5 μM, or 1 μM final concentration) in the phenol red-free DMEM/Ham’s F12 medium supplemented with 2% ccFBS and 2 mM glutamine. Next, cells were washed twice with PBS, and imaging medium (MEMO + Supplement A 1:100) was applied subsequently. Cells were imaged with Cytation 5 wide-field microscope (BioTek; Winooski, VT, USA) using 20× air objective and the following settings: for Cy5, 623 nm LED (intensity: 2) and Cy5 filter cube (685 nm) with 104 ms integration time and detector gain value of 2; for TAMRA, 523 nm LED (intensity: 7) and RFP filter cube (593 nm) with 252 ms integration time and detector gain value of 16; for bright-field, white LED with intensity 6, 186 ms integration time and detector gain value of 15. Four independent experiments were performed.

Structure (SMILES): CN(C)c1ccc2c(c1)Oc1cc(N(C)C)ccc1C21OC(=O)c2cc(C(=O)NCCCC[C@@H](NC(=O)[C@@H](CCCNC(=N)N)NC(=O)CNC(=O)[C@@H](CCCNC(=N)N)NC(=O)[C@@H](CCCNC(=N)N)NC(=O)CCCCc3cn(Cc4nc5c(sc6ccc(Br)cc65)c(=O)[nH]4)nn3)C(N)=O)ccc21 [Compound 8, BBTP-Tap-(D-Arg)2-Gly-D-Arg-[D-Lys(5-TAMRA)]-NH2]
- ability to cross the plasma membrane / internalization: much lower internalization efficiency
